In patent US20120148607A1 (ARGEN X N V, published 2012):

Tests used:
Test in all cases: ELISA, 48A2 (2 µg/ml) immobilised, chimera added, streptavidin-HRP
[1] = biological target: T1, LS1 (aa1-98) llama-human c-Met chimera (Llama glama; human, UniProt P08581 123-933)
T1 construct: range 1-98 (mature numbering, E=1);range 99-909 (mature numbering, E=1; derived); not shown: Flag and strep tag
Source text: (§1) An ELISA was run to investigate the binding of the mAbs to the different chimeras.

[2] = biological target: T2, LS2 (aa1-199) llama-human c-Met chimera (Llama glama; human, UniProt P08581 224-933)
T2 construct: range 1-199 (mature numbering, E=1);range 200-909 (mature numbering, E=1; derived); not shown: Flag and strep tag
T2 sequence (P08581 224-933, change not shown): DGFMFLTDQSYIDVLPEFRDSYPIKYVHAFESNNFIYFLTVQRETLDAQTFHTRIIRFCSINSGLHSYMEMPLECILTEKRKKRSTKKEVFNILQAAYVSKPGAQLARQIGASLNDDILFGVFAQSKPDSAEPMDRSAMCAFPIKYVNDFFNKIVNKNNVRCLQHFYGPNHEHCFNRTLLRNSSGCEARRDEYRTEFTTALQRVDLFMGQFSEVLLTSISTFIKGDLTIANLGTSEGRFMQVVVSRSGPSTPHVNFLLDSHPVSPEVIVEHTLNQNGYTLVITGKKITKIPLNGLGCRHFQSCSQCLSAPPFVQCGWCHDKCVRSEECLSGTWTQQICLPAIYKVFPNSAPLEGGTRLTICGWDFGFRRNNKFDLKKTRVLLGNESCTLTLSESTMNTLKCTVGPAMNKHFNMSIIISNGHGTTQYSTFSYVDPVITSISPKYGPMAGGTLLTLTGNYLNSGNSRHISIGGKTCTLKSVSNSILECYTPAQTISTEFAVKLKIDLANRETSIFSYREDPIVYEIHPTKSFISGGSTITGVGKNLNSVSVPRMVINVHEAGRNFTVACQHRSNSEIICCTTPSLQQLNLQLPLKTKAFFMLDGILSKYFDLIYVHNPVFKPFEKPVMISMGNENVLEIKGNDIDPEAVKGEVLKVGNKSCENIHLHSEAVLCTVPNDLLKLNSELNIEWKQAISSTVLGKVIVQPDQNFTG
Source text: as §1

[3] = biological target: T3, LS3 (aa1-287) llama-human c-Met chimera (Llama glama; human, UniProt P08581 312-933)
T3 construct: range 1-287 (mature numbering, E=1);range 288-909 (mature numbering, E=1; derived); not shown: Flag and strep tag
T3 sequence (P08581 312-933, change not shown): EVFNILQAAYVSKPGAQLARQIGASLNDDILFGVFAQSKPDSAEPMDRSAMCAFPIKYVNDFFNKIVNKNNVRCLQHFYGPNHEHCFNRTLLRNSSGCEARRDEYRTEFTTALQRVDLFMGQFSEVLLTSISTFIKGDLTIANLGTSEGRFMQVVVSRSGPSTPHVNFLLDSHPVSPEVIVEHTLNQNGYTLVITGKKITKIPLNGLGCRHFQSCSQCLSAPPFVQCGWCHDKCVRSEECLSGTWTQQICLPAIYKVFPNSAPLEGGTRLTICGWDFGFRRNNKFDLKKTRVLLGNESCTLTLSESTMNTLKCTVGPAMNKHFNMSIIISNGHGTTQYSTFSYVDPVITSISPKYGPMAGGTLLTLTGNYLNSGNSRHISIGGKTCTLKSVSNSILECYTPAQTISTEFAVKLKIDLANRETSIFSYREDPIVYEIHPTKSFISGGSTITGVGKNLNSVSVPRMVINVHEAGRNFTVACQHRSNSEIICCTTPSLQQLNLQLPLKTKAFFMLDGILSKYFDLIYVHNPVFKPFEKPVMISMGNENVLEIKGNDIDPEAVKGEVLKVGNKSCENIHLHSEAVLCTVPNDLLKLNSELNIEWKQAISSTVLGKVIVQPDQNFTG
Source text: as §1

[4] = biological target: T4, LS4 (aa1-348) llama-human c-Met chimera (Llama glama; human, UniProt P08581 373-933)
T4 construct: range 1-348 (mature numbering, E=1);range 349-909 (mature numbering, E=1; derived); not shown: Flag and strep tag
Source text: as §1

[5] = biological target: T5, LS5 (aa1-448) llama-human c-Met chimera (Llama glama; human, UniProt P08581 473-933)
T5 construct: range 1-448 (mature numbering, E=1);range 449-909 (mature numbering, E=1; derived); not shown: Flag and strep tag
T5 sequence (P08581 473-933, change not shown): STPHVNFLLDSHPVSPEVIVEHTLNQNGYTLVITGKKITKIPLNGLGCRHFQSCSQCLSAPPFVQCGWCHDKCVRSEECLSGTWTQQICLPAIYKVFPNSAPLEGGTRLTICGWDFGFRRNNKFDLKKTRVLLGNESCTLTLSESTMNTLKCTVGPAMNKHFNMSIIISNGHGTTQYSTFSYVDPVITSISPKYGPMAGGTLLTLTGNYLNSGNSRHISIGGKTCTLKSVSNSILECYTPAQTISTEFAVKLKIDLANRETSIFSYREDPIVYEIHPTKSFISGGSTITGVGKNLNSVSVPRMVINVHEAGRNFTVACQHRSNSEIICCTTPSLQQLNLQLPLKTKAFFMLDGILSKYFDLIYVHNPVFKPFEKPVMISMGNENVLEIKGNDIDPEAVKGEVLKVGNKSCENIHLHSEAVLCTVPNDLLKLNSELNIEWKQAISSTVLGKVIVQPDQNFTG
Source text: as §1

[6] = biological target: T6, LI8 (aa540-909) llama-human c-Met chimera (human; Llama glama, UniProt P08581 25-563)
T6 construct: range 1-539 (mature numbering, E=1; derived);range 540-909 (mature numbering, E=1); also called Ll8; not shown: Flag and strep tag
T6 sequence (P08581 25-563, change not shown): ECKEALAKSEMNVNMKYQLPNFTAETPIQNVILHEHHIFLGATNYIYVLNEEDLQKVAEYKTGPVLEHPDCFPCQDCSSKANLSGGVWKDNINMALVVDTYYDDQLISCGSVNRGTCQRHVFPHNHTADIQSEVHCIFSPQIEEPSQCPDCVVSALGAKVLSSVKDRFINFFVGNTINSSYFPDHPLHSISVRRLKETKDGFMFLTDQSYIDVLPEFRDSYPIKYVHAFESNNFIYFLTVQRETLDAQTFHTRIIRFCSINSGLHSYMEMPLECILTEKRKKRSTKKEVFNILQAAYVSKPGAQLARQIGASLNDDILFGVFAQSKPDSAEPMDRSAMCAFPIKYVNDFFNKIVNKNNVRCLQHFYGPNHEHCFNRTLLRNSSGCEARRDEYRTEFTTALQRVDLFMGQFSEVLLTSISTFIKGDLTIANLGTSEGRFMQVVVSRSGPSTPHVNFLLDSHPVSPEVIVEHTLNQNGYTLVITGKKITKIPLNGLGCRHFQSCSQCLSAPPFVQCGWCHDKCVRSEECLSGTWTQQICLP
Source text: as §1

[7] = biological target: T7, LI9 (aa572-909) llama-human c-Met chimera (human; Llama glama, UniProt P08581 25-595)
T7 construct: range 1-571 (mature numbering, E=1; derived);range 572-909 (mature numbering, E=1); also called Ll9; not shown: Flag and strep tag
T7 sequence (P08581 25-595, change not shown): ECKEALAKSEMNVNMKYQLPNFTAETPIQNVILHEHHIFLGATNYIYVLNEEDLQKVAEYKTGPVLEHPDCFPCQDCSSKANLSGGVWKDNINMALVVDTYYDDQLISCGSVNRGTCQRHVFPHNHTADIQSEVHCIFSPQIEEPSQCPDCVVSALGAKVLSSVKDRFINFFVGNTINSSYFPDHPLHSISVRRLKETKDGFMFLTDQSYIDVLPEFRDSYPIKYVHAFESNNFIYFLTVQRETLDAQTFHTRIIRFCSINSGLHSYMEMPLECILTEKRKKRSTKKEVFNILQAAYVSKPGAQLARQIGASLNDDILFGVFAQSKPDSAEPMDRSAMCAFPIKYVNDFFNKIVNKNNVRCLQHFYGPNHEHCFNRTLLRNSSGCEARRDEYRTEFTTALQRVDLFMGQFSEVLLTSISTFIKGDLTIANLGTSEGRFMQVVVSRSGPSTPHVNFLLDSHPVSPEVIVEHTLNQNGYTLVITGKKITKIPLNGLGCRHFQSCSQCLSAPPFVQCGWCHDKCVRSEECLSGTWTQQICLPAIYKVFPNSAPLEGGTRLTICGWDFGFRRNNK
Source text: as §1

[8] = biological target: T8, LI10 (aa608-909) llama-human c-Met chimera (human; Llama glama, UniProt P08581 25-631)
T8 construct: range 1-607 (mature numbering, E=1; derived);range 608-909 (mature numbering, E=1); also called Ll10; not shown: Flag and strep tag
T8 sequence (P08581 25-631, change not shown): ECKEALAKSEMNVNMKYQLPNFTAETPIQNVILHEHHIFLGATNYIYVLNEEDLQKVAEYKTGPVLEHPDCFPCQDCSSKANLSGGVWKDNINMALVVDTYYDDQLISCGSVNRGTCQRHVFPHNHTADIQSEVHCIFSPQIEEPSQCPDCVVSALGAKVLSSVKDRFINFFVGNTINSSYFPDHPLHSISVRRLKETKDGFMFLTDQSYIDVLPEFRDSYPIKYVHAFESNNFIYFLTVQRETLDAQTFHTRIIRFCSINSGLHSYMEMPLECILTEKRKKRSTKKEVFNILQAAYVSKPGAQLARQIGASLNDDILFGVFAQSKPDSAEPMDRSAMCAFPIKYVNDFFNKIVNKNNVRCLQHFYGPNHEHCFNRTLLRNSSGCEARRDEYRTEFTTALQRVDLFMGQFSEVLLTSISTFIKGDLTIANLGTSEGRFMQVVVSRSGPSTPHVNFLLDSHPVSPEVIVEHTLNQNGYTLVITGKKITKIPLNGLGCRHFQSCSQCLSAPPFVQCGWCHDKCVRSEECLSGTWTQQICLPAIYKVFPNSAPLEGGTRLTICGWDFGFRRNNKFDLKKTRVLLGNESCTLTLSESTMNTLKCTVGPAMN
Source text: as §1

[9] = biological target: T9, LI11 (aa634-909) llama-human c-Met chimera (human; Llama glama, UniProt P08581 25-657)
T9 construct: range 1-633 (mature numbering, E=1; derived);range 634-909 (mature numbering, E=1); also called Ll11; not shown: Flag and strep tag
T9 sequence (P08581 25-657, change not shown): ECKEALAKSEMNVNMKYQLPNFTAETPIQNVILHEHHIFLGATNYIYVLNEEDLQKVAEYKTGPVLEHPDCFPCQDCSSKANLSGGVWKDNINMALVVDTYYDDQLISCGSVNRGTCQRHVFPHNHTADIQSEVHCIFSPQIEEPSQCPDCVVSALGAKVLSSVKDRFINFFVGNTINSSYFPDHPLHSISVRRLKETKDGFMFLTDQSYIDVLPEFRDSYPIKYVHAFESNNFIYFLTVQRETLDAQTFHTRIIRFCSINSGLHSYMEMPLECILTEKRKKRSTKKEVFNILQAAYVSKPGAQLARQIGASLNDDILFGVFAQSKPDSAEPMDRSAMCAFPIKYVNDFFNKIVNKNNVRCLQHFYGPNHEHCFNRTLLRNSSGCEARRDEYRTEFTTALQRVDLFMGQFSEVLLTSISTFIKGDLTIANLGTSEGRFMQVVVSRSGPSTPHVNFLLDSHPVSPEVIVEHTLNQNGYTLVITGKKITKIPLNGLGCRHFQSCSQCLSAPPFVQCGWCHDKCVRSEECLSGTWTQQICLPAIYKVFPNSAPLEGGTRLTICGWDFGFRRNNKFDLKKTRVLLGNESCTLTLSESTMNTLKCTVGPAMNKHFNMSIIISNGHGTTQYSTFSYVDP
Source text: as §1

T1 sequence (P08581 123-933, change not shown): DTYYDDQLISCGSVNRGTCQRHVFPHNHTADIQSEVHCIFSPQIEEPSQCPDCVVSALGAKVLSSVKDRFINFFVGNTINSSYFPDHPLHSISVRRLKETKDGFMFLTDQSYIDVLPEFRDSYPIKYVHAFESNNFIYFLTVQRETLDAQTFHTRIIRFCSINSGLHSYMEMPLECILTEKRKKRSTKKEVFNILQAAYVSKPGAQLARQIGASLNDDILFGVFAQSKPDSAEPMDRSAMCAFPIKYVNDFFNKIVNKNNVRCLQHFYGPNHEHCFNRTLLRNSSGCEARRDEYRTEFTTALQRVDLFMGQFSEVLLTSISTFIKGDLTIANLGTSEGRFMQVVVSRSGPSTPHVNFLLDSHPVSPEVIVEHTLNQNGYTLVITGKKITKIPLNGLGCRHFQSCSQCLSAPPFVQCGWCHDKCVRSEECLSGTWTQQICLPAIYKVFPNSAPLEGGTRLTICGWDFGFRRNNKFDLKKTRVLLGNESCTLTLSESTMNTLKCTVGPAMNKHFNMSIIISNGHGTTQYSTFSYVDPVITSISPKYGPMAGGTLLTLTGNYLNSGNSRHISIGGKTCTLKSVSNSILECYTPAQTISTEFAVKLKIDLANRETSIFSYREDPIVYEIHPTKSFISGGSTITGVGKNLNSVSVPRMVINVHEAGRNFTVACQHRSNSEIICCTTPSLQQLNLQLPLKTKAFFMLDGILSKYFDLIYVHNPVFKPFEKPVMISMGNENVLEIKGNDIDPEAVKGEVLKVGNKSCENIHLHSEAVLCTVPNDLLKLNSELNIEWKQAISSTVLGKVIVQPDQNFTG

B1: 48A2 mAb (antibody, V domains shown)
VH: EVQLVQPGVELRNPGASVKVSCKASGYIFTMNSIDWVRQAPGQGLEWMGRIDPEDGGTKYAQKFQGRVTFTADTSTSTAYVELNSLRSEDTAVYYCARVDDYYLGYDYWGQGTQVTVSS
VL: DIVMTQTPTSVTASAGDKVTINCKSSQSVLFSSNQKNYLAWYQQRLGQSPRLLIYWASIRESGVPDRFSGSGSATDFTLTISNFQPEDAAVYYCQQGYSFPYSFGSGTRLEIR
**Q.** How did the EC50 [1] turn out when B1 was run?
**A.** 0.031 µg/mL

**Q.** What about the EC50 [2] of the same binder?
**A.** 0.034 µg/mL

**Q.** What about the EC50 [3] of the same binder?
**A.** 0.05 µg/mL

**Q.** What about the EC50 [4] of the same binder?
**A.** 0.07 µg/mL

**Q.** What about the EC50 [5] of the same binder?
**A.** 0.05 µg/mL

**Q.** And the EC50 [6]?
**A.** > 0.04 µg/mL

**Q.** What about the EC50 [7] of the same binder?
**A.** > 0.04 µg/mL

**Q.** And the EC50 [8]?
**A.** > 0.04 µg/mL

**Q.** What about the EC50 [9] of the same binder?
**A.** 0.042 µg/mL
